Data taken from US20210002358A1.

Biological target: tau seeds in spinal cord homogenates of P301S transgenic mice (aggregated transgenic human tau) (human), P10636
Test: cell-based or functional assay

tau seeds in spinal cord homogenates of P301S transgenic mice (aggregated transgenic human tau) (human), P10636, sequence (P10636 other isoform, or with tags, fused parts or gaps P301S P301S): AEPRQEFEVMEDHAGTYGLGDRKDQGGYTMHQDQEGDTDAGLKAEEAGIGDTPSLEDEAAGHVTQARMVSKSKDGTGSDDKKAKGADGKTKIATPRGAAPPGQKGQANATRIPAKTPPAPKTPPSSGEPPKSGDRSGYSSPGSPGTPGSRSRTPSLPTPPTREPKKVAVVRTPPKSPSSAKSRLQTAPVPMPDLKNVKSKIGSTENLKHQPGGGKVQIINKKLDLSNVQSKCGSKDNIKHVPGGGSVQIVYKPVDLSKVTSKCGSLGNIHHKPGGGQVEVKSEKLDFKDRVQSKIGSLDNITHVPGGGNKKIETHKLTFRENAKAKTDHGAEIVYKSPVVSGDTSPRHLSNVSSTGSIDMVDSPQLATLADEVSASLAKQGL

K18 aggregate formation, FRET-positive HEK cells counted by FACS: 3 nM
B1: PT82 mAb (recombinantly expressed, mouse IgG2a/kappa) (antibody, V domains shown)
VH: EVKLEESGGGLVQPGGSMKLSCVASGFTFSNYWMNWIRQSPEKGLEWVAQIRLQSDNYATRYAESVKGRFTISRDESKTSVYLQMNNLRTEDTGIYYCTGGTTYWGQGTLVTVSA
VL: DIVMTQSQKFMSTSVGDRVSITCKASQNVGTAVAWYQQKPGQSPKLLIYSASIRYTGVPDRFTGSGSGTDFTLTINYMQSEDLADYFCQQFSSYPYTFGGGTKLEIK
